Measured values from publication PMC8231724, “A Glycolipid Glycosyltransferase with Broad Substrate Specificity from the Marine Bacterium “Candidatus Pelagibacter sp.” Strain HTCC7211” (Applied and Environmental Microbiology, 2021).

Key:
Test in all cases: LC-MS of glycolipid product, Hanes-Woolf plot
Type in all cases: biochemical, Candidatus Pelagibacter sp. HTCC7211
Conditions in all cases: acceptor C16:0/C18:1 DAG, no added Mg2+, Tricine-KOH pH 8.5, 35 °C, 2 mM DTT
[1] = substrate: O=c1ccn([C@@H]2O[C@H](CO[P@@](=O)(O)O[P@@](=O)(O)O[C@H]3O[C@H](CO)[C@@H](O)[C@H](O)[C@H]3O)[C@@H](O)[C@H]2O)c(=O)[nH]1
Description: (§1) LC-MS of glycolipid product, Hanes-Woolf plot on GTcp

[2] = substrate: O=C(O)[C@H]1O[C@H](OP(=O)(O)OP(=O)(O)OC[C@H]2O[C@@H](n3ccc(=O)[nH]c3=O)[C@H](O)[C@@H]2O)[C@H](O)[C@@H](O)[C@@H]1O
Description: as §1

[3] = substrate: O=c1ccn([C@@H]2O[C@H](COP(=O)(O)OP(=O)(O)O[C@H]3O[C@H](CO)[C@H](O)[C@H](O)[C@H]3O)[C@@H](O)[C@H]2O)c(=O)[nH]1
Description: as §1

B1: GTcp (Candidatus Pelagibacter sp. HTCC7211) (protein)
chain: MKILIVTDAYYPQVNGVVRTLHETGEILKSQGHTIEYITPQQFLTVPMPKYNEIRLSLNVWPRVSNLINSIKPDAIHIATEGPLGFMARRHCIKKGLKFTTSFHTRFDKYIKLYMPIIPAKWSEKFLCNFHNKAERILVTTESMREELIALGVDNNKMVTWTRGGNHGAFKNPVKRDLPYKRPIWIYVGRVAVEKNIKAFLDLDLEGTKVIIGKGPNLNKLKKKYPNDYFLGEKTNGELASHFASSDVFVFPSKTDTFGIVVLESLSCGTPVAAYPVPGPKDILGGSKIDTLDQDLKTSALKALKVNREDCLEFAKKYSWEETARIFYNNISPN
notes: full length, 334 aa (1,005 bp), codon-optimised synthetic gene in pET22b, His-tagged, E. coli BL21-CodonPlus(DE3)-RIL, Ni-NTA and Superdex 200, 38 kDa monomer, about 70 kDa dimer
In the case of B1, the Km [1] is reported as 82 ± 0.3 µM, the kcat [1] is reported as 0.0975 ± 0.00667 s⁻¹ and the kcat/Km [1] is reported as 1190 ± 45 M⁻¹ s⁻¹. The Km [2] was 68 ± 0.5 µM, the kcat [2] was 0.0675 ± 0.00167 s⁻¹ and the kcat/Km [2] was 993 ± 60 M⁻¹ s⁻¹. For the same protein, the Km [3] was 32 ± 0.4 µM, the kcat [3] was 0.0172 ± 0.005 s⁻¹ and the kcat/Km [3] was 537 ± 48.3 M⁻¹ s⁻¹.
